From patent US20130315910A1 (Xencor, published 2013)

How the values were obtained:
[1] = molecular target: T1, human FcγRIIIa (158V), His- and GST-tagged (human, UniProt P08637 17-208); assay: SPR
T1 construct: also called V158 FcγRIIIa; VIIIa; not shown: 6xHis and GST tags of the pTT5 vector

[2] = molecular target: T2, human FcγRIIIa (158F), His- and GST-tagged (human, UniProt P08637 17-208); assay: SPR
T2 construct: also called F158 FcγRIIIa; not shown: 6xHis and GST tags of the pTT5 vector

[3] = molecular target: T3, human FcγRI receptor protein (R&D Systems) (human, UniProt P12314 16-288); assay: SPR
T3 construct: also called soluble FcγRI; solFcγRI
T3 sequence (P12314 16-288 limits assumed): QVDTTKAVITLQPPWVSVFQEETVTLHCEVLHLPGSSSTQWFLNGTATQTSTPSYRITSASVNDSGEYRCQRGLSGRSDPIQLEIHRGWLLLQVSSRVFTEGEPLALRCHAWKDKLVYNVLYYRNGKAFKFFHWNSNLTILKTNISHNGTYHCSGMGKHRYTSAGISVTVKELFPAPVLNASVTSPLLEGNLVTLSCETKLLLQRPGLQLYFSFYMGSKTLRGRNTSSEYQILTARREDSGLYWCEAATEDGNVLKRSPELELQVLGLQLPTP

[4] = molecular target: T4, human FcγRIIa (131R), His- and GST-tagged (human, UniProt P12318 34-217); assay: SPR
T4 construct: Expressed in HEK293T cells, purified by nickel chromatography; also called R131 FcγRIIa; not shown: 6xHis and GST tags of the pTT5 vector
T4 sequence (looked up): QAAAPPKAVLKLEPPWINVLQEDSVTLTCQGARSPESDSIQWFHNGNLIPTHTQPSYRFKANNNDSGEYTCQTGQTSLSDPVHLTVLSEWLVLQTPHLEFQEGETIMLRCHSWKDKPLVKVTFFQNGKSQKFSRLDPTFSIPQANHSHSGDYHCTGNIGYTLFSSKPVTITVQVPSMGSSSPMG

[5] = molecular target: T5, human FcγRIIa (131H), His- and GST-tagged (human, UniProt P12318 34-217); assay: SPR
T5 construct: also called H131 FcγRIIa; HIIa; not shown: 6xHis and GST tags of the pTT5 vector
T5 sequence (looked up): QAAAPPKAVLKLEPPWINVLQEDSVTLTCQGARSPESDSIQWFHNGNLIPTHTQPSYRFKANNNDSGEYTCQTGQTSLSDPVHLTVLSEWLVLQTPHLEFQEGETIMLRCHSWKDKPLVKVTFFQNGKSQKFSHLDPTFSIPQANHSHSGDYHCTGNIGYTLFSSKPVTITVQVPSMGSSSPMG

[6] = molecular target: T6, human FcγRIIb receptor protein (R&D Systems) (human, UniProt P31994 46-217); assay: SPR
T6 construct: Bought protein injected over captured antibody in Biacore; also called CD32b
T6 sequence (looked up): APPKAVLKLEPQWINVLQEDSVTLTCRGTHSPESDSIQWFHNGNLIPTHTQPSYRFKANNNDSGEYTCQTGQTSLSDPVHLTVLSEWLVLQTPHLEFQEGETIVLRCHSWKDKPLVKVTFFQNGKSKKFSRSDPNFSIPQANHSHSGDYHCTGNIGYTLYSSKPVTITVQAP

[7] = molecular target: T6, human FcγRIIb receptor protein (R&D …); assay: Biacore SPR, antibody captured on protein A/G chip, FcγR injected, 1:1 Langmuir fit
Method: Variants were screened for receptor affinity using Biacore™ technology, also referred to as Biacore herein, a surface plasmon resonance (SPR) based technology for studying biomolecular interactions in real time. SPR measurements were performed using a Biacore 3000 instrument (Biacore, Piscataway, N.J.). A protein A/G (Pierce Biotechnology) CM5 biosensor chip (Biacore) was generated using a standard primary amine coupling protocol. All measurements were performed using HBS-EP buffer (10 mM HEPES pH 7.4, 0.15 M NaCl, 3 mM EDTA, 0.005% vol/vol surfactant P20, Biacore). Antibodies at 20 nM or 50 nM in HBS-EP buffer were immobilized on the protein A/G surface and FcγRs were injected. After each cycle, the surface was regenerated by injecting glycine buffer (10 mM, pH 1.5). Data were processed by zeroing time and response before the injection of FcγR and by subtracting appropriate nonspecific signals (response of reference channel and injection of running buffer). Kinetic analyses were performed by global fitting of binding data with a 1:1 Langmuir binding model using BIAevaluation software (Biacore).

cynoFcγRIIIa = molecular target: T7, cynoFcγRIIIa (Macaca fascicularis, UniProt Q8SPW2); assay: SPR, Kd
T7 construct: extracellular region, C-terminal His- and GST-tag; also called cynomolgus monkey FcγRIIIa
T7 sequence (Q8SPW2 17-208): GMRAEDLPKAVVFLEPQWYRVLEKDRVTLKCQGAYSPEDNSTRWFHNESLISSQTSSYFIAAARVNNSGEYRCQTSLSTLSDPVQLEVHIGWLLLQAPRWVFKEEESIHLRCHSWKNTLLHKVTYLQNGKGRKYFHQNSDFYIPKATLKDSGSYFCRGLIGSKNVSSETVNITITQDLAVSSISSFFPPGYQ
Method in brief: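 Biacore 3000 SPR; protein A/G capture of antibody (20 or 50 nM) on CM5; cyno FcγR ECD as analyte; HBS-EP pH 7.4 running buffer; glycine pH 1.5 regeneration; reference- and buffer-subtracted; global 1:1 Langmuir fit for kinetics.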

mFcγRIV = molecular target: T8, mFcγRIV; assay: SPR
T8 construct: also called mouse FcγRIV; not shown: C-terminal His and GST tags (named only on our card)
T8 chain: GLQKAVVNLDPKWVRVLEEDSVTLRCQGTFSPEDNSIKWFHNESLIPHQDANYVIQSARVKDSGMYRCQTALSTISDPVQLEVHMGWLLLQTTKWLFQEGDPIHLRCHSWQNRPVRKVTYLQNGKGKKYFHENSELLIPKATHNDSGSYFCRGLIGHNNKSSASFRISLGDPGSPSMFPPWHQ

cynoFcγRIIb = molecular target: T9, cynoFcγRIIb (Macaca fascicularis, UniProt A0A140HDP4); assay: SPR
T9 construct: extracellular region, C-terminal His- and GST-tag; also called cynomolgus monkey FcγRIIb
T9 sequence (receptor extracellular region): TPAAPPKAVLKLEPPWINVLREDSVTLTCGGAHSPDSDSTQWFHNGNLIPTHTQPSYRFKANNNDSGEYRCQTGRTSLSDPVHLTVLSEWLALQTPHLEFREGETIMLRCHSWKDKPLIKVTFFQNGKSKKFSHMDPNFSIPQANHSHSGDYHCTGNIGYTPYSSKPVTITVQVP

mFcγRIIb = molecular target: T10, mFcγRIIb (Mus musculus, UniProt P08101); assay: SPR
T10 construct: extracellular region, C-terminal His- and GST-tag; also called mouse FcγRII
T10 sequence (receptor extracellular region, looked up): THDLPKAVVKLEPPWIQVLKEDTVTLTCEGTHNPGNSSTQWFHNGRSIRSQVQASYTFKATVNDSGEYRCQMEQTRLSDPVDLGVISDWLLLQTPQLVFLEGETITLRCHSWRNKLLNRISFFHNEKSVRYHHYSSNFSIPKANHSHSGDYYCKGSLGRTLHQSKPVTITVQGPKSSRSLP

[8] = molecular target: T11, human FcγRIIb on cells (transfected HEK293T cells; primary human B cells) (human, UniProt P31994 43-310); assay: flow cytometry on HEK293T cells transfected with human FcγRIIb, PE anti-human Fab detection
T11 construct: whole, on cells; also called CD32b
T11 sequence (looked up): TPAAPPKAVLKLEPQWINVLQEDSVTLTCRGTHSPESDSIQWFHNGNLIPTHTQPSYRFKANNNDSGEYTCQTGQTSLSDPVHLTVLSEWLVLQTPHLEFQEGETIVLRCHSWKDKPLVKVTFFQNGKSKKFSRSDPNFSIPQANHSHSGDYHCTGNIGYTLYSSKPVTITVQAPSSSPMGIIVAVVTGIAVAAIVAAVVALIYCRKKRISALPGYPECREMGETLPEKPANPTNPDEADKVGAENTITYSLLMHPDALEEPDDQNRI
Method: (§1) In order to validate the Biacore data and evaluate receptor binding of the variants on the cell surface, binding of select antibodies to cells expressing FcγRIIb was measured. […] HEK293T cells in DMEM with 10% FBS were transfected with human FcγRIIb cDNA in pCMV6 expression vector (Origene Technologies, Rockville, Md.), cultured for 3 days, harvested, washed twice in PBS, resuspended in PBS with 0.1% BSA (PBS/BSA), and aliquoted at 2×10^5 cells per well into 96-well microtiter plates. Fc variant antibodies were serially diluted in PBS/BSA then added to the cells and incubated with mixing for 1 h at room temperature. After extensive washing with PBS/BSA, phycoerythrin (PE)-labeled anti-human-Fab-specific goat F(ab′)2 fragment was added for detection. Cells were incubated for 30 min at room temperature, washed, and resuspended in PBS/BSA. Binding was evaluated using a FACSCanto II flow cytometer (BD Biosciences, San Jose, Calif.), and the mean fluorescence intensity (MFI) was plotted as a function of antibody concentration using Graph Pad Prism software (GraphPad Software, San Diego, Calif.) from which half-maximal binding (EC50) values were determined by sigmoidal dose response modeling.

[9] = molecular target: T11, human FcγRIIb on cells (transfected …); assay: flow cytometry on FcγRIIb-transfected 293T cells [middle right panel]
Method: as §1

[10] = molecular target: T11, human FcγRIIb on cells (transfected …); assay: flow cytometry on FcγRIIb-transfected 293T cells [top right panel]
Method: as §1

[11] = molecular target: T11, human FcγRIIb on cells (transfected …); assay: flow cytometry on FcγRIIb-transfected 293T cells [top left panel]
Method: as §1

[12] = molecular target: T11, human FcγRIIb on cells (transfected …); assay: flow cytometry on FcγRIIb-transfected 293T cells [middle left panel]
Method: as §1

[13] = molecular target: T11, human FcγRIIb on cells (transfected …); assay: flow cytometry on FcγRIIb-transfected 293T cells [bottom left panel]
Method: as §1
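For Fold vs WT IgG1 (off-rate) in this document: fold improvement over WT IgG1 so higher means slower dissociation than WT.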

T1 sequence (P08637 17-208 F176V): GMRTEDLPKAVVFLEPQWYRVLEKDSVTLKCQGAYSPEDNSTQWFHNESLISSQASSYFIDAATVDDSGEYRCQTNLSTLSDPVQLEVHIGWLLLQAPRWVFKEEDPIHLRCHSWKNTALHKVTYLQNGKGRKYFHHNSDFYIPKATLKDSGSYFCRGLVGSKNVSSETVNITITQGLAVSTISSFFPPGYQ
T2 sequence (P08637 17-208): as the sequence (P08637 17-208 F176V) above, with V160F counted along it

| Binder | Fold vs WT IgG1 [1] | Kd [1] | Fold vs WT IgG1 [3] | Kd [3] | Fold vs WT IgG1 [4] | Kd [4] | Fold vs WT IgG1 [5] | Kd [5] | Fold vs WT IgG1 [6] | Kd [6] | also measured |
| --- | --- | --- | --- | --- | --- | --- | --- | --- | --- | --- | --- |
| anti-CD19 antibody HuAM4G7, WT (native) IgG1 (antibody, also called WT IgG1; anti-CD19-IgG1; copies: 2 + 2) heavy: not shown light: DIVMTQSPATLSLSPGERATLSCRSSKSLQNVNGNTYLYWFQQKPGQSPQLLIYRMSNLNSGVPDRFSGSGSGTEFTLTISSLEPEDFAVYYCMQHLEYPITFGAGTKLEIKRTVAAPSVFIFPPSDEQLKSGTASVVCLLNNFYPREAKVQWKVDNALQSGNSQESVTEQDSKDSTYSLSSTLTLSKADYEKHKVYACEVTHQGLSSPVTKSFNRGEC | 1 fold | 191 nM | 1 fold | 0.329 nM | 1 fold | 859 nM | 1 fold | 646 nM | 1 fold |  | Fold vs WT IgG1 [2]: 1 fold; Kd [7]: 1470 nM |
| anti-CD19 antibody HuAM4G7 IgG1 S267E/L328F (antibody, Positions in EU numbering; also called anti-CD19-S267E/L328F; α-CD19-S267E/L328F; copies: 2 + 2) heavy: not shown light: DIVMTQSPATLSLSPGERATLSCRSSKSLQNVNGNTYLYWFQQKPGQSPQLLIYRMSNLNSGVPDRFSGSGSGTEFTLTISSLEPEDFAVYYCMQHLEYPITFGAGTKLEIKRTVAAPSVFIFPPSDEQLKSGTASVVCLLNNFYPREAKVQWKVDNALQSGNSQESVTEQDSKDSTYSLSSTLTLSKADYEKHKVYACEVTHQGLSSPVTKSFNRGEC | 0.038 fold | 5040 nM | 1.5 fold | 0.22 nM | 275 fold | 3.12 nM | 0.7 fold | 923 nM | 242 fold | 6.06 nM | binding result (cynoFcγRIIIa): no binding; Fold vs WT IgG1 (Kd) (mFcγRIV): 0.02 fold; Fold vs WT IgG1 (off-rate) (mFcγRIV): 0.198 fold; Fold vs WT IgG1 (Kd) (cynoFcγRIIb): 0.881 fold; Fold vs WT IgG1 (off-rate) (cynoFcγRIIb): 1.26 fold; Fold vs WT IgG1 (Kd) (mFcγRIIb): 1.06 fold; Fold vs WT IgG1 (off-rate) (mFcγRIIb): 4.89 fold; fold EC50 relative to WT IgG1 [8]: ~320 fold |
| S239D/I332E (antibody, human IgG1, kappa, HuAM4G7 anti-CD19 IgG1 (m1) with these Fc substitutions, EU index; copies: 2 + 2) heavy: not shown light: DIVMTQSPATLSLSPGERATLSCRSSKSLQNVNGNTYLYWFQQKPGQSPQLLIYRMSNLNSGVPDRFSGSGSGTEFTLTISSLEPEDFAVYYCMQHLEYPITFGAGTKLEIKRTVAAPSVFIFPPSDEQLKSGTASVVCLLNNFYPREAKVQWKVDNALQSGNSQESVTEQDSKDSTYSLSSTLTLSKADYEKHKVYACEVTHQGLSSPVTKSFNRGEC |  |  |  | 0.0374 nM |  | 68.6 nM |  | 163 nM |  | 101 nM | EC50 (read off the curve) [9]: ~0.03 µg/mL; EC50 (read off the curve) [10]: ~0.02 µg/mL; Kd [2]: 28.2 nM; EC50 (read off the curve) [11]: ~0.02 µg/mL; EC50 (read off the curve) [12]: ~0.03 µg/mL |
| anti-CD19 antibody HuAM4G7 IgG1 L235Y/S267E (antibody, Positions in EU numbering; copies: 2 + 2) heavy: not shown light: DIVMTQSPATLSLSPGERATLSCRSSKSLQNVNGNTYLYWFQQKPGQSPQLLIYRMSNLNSGVPDRFSGSGSGTEFTLTISSLEPEDFAVYYCMQHLEYPITFGAGTKLEIKRTVAAPSVFIFPPSDEQLKSGTASVVCLLNNFYPREAKVQWKVDNALQSGNSQESVTEQDSKDSTYSLSSTLTLSKADYEKHKVYACEVTHQGLSSPVTKSFNRGEC |  |  | 0.00347 fold | 95 nM | 37.5 fold | 22.9 nM | 0.941 fold | 687 nM | 37.2 fold | 39.4 nM | binding result [1]: no binding; EC50 (read off the curve) [13]: ~0.006 µg/mL |
